Drawing on patent publication US20050032694A1, this text covers soluble agrin fragment in culture medium of co-transfected HEK293T cells (Western blot) for one substance.

This assay concerns the target rat agrin (the transmembrane isoform Y4, Z8) (rat) (UniProt P25304). Put plainly: cell-based or functional assay.
UniProt P25304, sequence (P25304 whole entry, canonical isoform): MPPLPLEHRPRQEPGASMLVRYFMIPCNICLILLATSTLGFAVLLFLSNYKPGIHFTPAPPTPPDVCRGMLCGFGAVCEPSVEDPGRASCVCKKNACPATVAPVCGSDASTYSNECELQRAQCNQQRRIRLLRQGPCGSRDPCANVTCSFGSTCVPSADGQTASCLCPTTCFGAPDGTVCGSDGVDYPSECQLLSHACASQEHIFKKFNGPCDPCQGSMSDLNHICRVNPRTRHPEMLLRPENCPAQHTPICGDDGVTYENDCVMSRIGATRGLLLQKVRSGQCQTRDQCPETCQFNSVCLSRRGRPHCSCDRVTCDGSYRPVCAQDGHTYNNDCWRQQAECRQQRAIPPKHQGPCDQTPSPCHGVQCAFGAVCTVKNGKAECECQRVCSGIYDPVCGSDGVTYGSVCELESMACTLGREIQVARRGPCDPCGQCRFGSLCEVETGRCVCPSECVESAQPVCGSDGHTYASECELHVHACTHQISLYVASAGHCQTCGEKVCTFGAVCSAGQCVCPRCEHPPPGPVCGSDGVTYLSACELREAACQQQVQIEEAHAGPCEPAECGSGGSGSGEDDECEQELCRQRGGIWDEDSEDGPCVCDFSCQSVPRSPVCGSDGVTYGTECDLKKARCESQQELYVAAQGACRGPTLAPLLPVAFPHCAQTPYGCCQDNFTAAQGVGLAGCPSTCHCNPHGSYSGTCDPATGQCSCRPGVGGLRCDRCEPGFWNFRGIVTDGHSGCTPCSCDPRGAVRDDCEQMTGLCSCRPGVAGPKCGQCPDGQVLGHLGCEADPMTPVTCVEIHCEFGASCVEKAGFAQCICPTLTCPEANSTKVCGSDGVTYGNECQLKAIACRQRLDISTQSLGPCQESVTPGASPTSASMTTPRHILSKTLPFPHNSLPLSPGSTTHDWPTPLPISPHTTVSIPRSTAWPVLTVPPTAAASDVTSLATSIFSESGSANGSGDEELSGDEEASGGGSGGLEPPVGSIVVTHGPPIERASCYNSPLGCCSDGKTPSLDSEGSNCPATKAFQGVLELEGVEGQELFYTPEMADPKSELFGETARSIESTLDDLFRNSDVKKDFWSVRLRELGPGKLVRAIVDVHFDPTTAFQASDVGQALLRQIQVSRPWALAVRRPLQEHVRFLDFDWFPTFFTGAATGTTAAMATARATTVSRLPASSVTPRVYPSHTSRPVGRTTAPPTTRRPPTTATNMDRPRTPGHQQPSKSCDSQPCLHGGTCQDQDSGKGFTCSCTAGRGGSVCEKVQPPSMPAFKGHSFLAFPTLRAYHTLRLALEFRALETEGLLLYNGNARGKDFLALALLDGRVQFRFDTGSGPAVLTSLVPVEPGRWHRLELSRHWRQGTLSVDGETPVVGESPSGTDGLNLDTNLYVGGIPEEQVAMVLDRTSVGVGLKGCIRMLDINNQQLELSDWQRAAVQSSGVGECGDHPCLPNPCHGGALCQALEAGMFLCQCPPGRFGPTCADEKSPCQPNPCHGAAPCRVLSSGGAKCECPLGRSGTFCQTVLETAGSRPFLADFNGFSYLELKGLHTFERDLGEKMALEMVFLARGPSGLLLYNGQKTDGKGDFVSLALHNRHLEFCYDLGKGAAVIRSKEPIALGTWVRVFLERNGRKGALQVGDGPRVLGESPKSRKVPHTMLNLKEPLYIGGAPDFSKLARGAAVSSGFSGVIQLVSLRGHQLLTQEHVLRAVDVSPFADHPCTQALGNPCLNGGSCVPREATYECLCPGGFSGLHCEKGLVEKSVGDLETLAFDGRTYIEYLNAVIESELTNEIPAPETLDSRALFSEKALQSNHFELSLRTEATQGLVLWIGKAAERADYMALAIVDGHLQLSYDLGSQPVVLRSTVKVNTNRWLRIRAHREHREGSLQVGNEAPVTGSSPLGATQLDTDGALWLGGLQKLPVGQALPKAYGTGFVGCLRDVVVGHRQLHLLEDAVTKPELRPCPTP

On to “neurotrypsin of the mouse (compound of the formula II) (from UniProt O08762 22-761) (enzyme)”, for which the soluble agrin fragment in culture medium of co-transfected HEK293T cells (Western blot) was determined as 100 kDa.
